Measurements: the supplement of paper PMC10567573

B1: ZBTB22 (parent)
chain: FSSSSQEAFAASAVGSGERRGGGP

Variants of: B1
Assay: protein stability index of a GFP-peptide fusion (GPS, HEK-293T) (PSI 1-6); higher = more stable
Details: c terminus: a fixed tail appended
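Also: lentivirally expressed fusions sorted by FACS into six bins by GFP to DsRed ratio, PSI derived from sequencing read proportions per bin multiplied by bin number.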

Protein stability index of substitutions, site by site:
G23: M 2.91 | T 3.27 | L 2.94 | D 4.21 | I 2.74 | S 3.25 | C 3.46 | V 3.03 | F 3.75 | K 4.06 | H 3.39 | R 3.48 | A 3.57 | W 1.43 | Y 2.87 | N 3.4 | P 3.54
A13: G 3.01 | R 3.78 | P 3.43 | D 3.9 | S 3.31 | V 3.87 | C 2.25 | Y 3.26 | T 2.71 | M 2.79 | E 3.93 | N 2.57 | K 3.36 | F 2.64
G17: L 3.12 | F 3.18 | M 3.35 | D 3.88 | A 3.02 | T 3.08 | S 3.39 | Q 3.31 | R 3.23 | W 2.85 | P 3.22 | I 2.74
S16: V 3.52 | I 3.06 | T 3.61 | F 2.4 | P 3.4 | H 3.27 | E 4.25 | N 3.38 | G 3.18 | L 2.75 | K 3.34 | D 3.63
G15: L 3.89 | Y 2.58 | E 3.85 | M 3.25 | D 4.16 | S 3.61 | T 3.12 | Q 3.26 | R 2.78 | I 3.3 | A 3.09
S4: G 1.93 | Q 3.09 | D 3.98 | A 3.14 | I 3.62 | H 3.21 | F 2.88 | T 3.29 | V 3.87 | E 4.28 | N 3.52 | L 3.65 | K 2.65
R20: G 3.14 | M 3.3 | C 2.9 | A 3.42 | V 3.41 | W 2.21 | L 3.78 | E 4.12 | N 3.36 | D 3.64 | I 3.17 | Y 3.3
A10: E 4.74 | C 2.44 | W 2.88 | Y 2.27 | S 3.22 | G 3.75 | I 2.44 | R 3.33 | Q 4.09 | K 3.2 | D 5.25 | N 3.97 | H 3.65
E7: I 2.24 | Q 3.67 | N 2.84 | H 2.31 | K 2.82 | T 2.78 | V 1.96 | S 2.57 | R 2.36 | M 2.37 | Y 1.54 | C 1.64 | D 3.99 | L 1.55
G22: R 3.25 | A 3.6 | K 2.15 | T 3.72 | Q 3.83 | P 3.7 | C 3.29 | L 3.65 | E 3.66 | M 2.44 | I 3.3 | F 2.96
F9: V 5.24 | W 1.67 | M 4.96 | A 5.51 | C 4.57 | T 5.26 | S 5.01 | R 4.35 | Y 3.56 | G 4.56 | E 5.92 | D 5.44 | L 4.92 | I 4.83 | H 4.66
G21: W 2.31 | A 3.64 | Y 3.22 | S 3.85 | E 3.68 | Q 3.73 | I 3.48 | R 3.35 | K 2.69 | L 3.05 | D 4.06 | M 3.4 | T 2.94
Q6: V 2.6 | S 2.49 | I 2.5 | L 2.85 | M 2.85 | G 4.22 | T 2.77 | A 2.74 | H 2.81
